Test system: methylarginine peptide (SEQ ID NO:1)

Row | Substance | demethylation of the peptide, read as gain of anti-RG signal on slot blot (6 hours, 30 C) | demethylation of the peptide, read as loss of anti-mRG signal on slot blot (20 hours, 22.5 C)
1 | TbJmJ2 fusion protein (MBP-JmJ2, Jumonji Fusion Protein 2) | giving a positive reaction with anti-RG in a dose-dependent manner | indicates a concentration-dependent decrease in the methylation status of the GmRG peptide
2 | TbJmJ1 fusion protein (MBP-JmJ1, Jumonji Fusion Protein 1) | giving a positive reaction with anti-RG in a dose-dependent manner | –

Reference: patent US20170218430
